Measurements taken from patent US20100015126A1, “Methods of Binding of Cross-Beta Structures By Chaperones” (priority 2006, published 2010).

Assays:
Test in all cases: cell-based or functional assay
[1] = molecular target: synthetic peptide 6BB9
[2] = molecular target: synthetic human Aβ16-22 (6BB12) (human)
[3] = molecular target: synthetic peptide 6BB10
[4] = molecular target: synthetic human Aβ25-35 (6BB6) (human)
[5] = molecular target: synthetic peptide 6BB13
[6] = molecular target: synthetic peptide 6BB11

recombinant human BiP with C-terminal linker, FLAG-tag and His-tag (BiP-FLAG-His), P11021 19-654, sequence (P11021 other isoform, or with tags, fused parts or gaps): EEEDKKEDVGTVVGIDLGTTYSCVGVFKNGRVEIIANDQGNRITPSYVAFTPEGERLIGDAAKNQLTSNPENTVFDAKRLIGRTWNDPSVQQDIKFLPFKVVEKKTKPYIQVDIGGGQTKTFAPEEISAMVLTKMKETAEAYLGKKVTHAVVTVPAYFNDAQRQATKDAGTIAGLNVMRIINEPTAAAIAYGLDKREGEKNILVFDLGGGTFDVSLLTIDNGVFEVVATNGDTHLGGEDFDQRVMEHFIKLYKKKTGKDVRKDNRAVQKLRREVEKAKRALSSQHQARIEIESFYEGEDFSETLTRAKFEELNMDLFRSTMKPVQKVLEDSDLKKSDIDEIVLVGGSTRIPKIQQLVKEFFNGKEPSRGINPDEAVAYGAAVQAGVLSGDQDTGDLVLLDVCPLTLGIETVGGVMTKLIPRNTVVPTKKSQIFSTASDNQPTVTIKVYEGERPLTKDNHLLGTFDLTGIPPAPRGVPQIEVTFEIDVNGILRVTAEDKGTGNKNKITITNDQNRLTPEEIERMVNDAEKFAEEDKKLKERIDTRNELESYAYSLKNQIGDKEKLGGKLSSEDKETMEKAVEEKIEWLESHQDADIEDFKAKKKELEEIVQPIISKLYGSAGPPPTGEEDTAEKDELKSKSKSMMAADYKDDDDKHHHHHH

recombinant human BiP with C-terminal linker, FLAG-tag and His-tag (BiP-FLAG-His), P11021 19-654
Binding to DCs (MFI ratio), BiP, mix of HSP70/BiP-binding peptides + BiP [1]: 1.8 MFI ratio | Binding to DCs (MFI ratio), BiP, Aβ16-22/Aβ25-35 + BiP [2]: 261 MFI ratio | Binding to DCs (MFI ratio), BiP, mix of HSP70/BiP-binding peptides + BiP [3]: 1.8 MFI ratio | Binding to DCs (MFI ratio), BiP, Aβ16-22/Aβ25-35 + BiP [4]: 261 MFI ratio | Binding to DCs (MFI ratio), BiP, mix of HSP70/BiP-binding peptides + BiP [5]: 1.8 MFI ratio | Binding to DCs (MFI ratio), BiP, mix of HSP70/BiP-binding peptides + BiP [6]: 1.8 MFI ratio
